Data: the domain aggregation screens of Martell et al. (2025)

Experiment: soluble fraction after stress (log2 fold change); higher = more stays soluble; pooled small domains, quantitative proteomics
Conditions: stress: pH 4
Summary of the method: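 Following acid stress at pH 4, the amount of each small protein domain still soluble was measured in pooled custom libraries by high-throughput quantitative proteomics. Its fold change, on a log2 scale, is higher when more of the domain stayed soluble. This fold change is taken as a measure of aggregation propensity.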

Sequence | soluble fraction (log2)
HMAVNDPDEKFIELGIPADWVQVVRKAGFQTVEALKTVENPNKLHQELSGLNKKMKLGLKTLSQDEVKDWF | -0.0206
HMAVPMTPGELVGSRVRVLWWKDGRGEVVALARGHQATLPARSEEPLRTGADAVVLEADEGTLVVTS | -0.192
HMAVSGRMMVYEYIRQQMREGSLLPGSVLDLPAISHKLGISNTPLRDSLIRLEAEGYLTIYPRSKVVIN | -0.254
HMAVTGRVDLRIKPWGYVSVDGAAKVSSPPTMQLKLAPGRHEIEITNPAGAAVTKTVDVIAGKSVTVQHN | 0.19
HMAVTKVKVITESSNLNIRKGPGTDQPIVGKAAHHEIITLVNKSNDQWWLVRTNDGEEGYSYSRYLEPVT | -0.153
HMAVVEVATTTATEYKVEKGHHFKVGDFVMFKTGAKSYAITAIDTTSPIFDKITVGTTLGEAIPVGGTLM | -1.45
HMAVVIPDVKGMTIEEAAPFLAEKGIRYNIIDSVFSKDVDPGAIVEIVPTPGSKVKEGRIVFVTINAK | -0.774
HMAVVQMVDRPGGLDELLKDVVRAGVNFANAYGRTASDGNSAFFVIDIQDIPGARQKLADVGLQILADEAV | -0.512
HMAWAVDVGVVGLFPGKAVLVIDGGAPRTVPVGANVGGVRLLAVDQGSATVEIGGKRQRLAIGQHAH | 0.22
HMAWIGEHTVTSEDTLSHIALKFYGHATPPYYKLIYEANKAIIGDNMNIIVPGQVLRIPALPEEL | -0.592
HMAYLTVPAVIAKDTKKSIQLLESKGFEVVIQDSIYTDTLARGTVIKQLPDPNATVKINRTVYLTVNRYTP | -0.369
HMAYQQITIKANVVNVRQGPGLSYDVMSQANKGETMNVISQKNNWYQVRLSGDKIGWVASWLVDNT | ≥ 0.43
HMAYWVVKNNQVSLQINRSNYQITSTARALSNGNLGDEIDVKVLQSGVIKKAVVIGKGQVELLR | 0.163
HMDAHIGTLTPRERETLHHLAIGHSNKVIAKKLNLAESTVKAYVQSILRKLGLSSRVQAAVYAIQHDIR | -0.23
HMDAIDPKTVTSWADLWKPEYKSSLLLTDDAREVFQMALRKLGYSGNTTDPKEIEAAYNELKKLMPNVAAF | -0.474
HMDAIDQDGNHMTFKRWGEQLQEAFQALEAYDTDKAKTILNELIKFPIDSDLNNALKGILSNIDEMMA | -0.68
HMDAINITTYKGQITLTGTKTGTLVGIYNTAGMLVKSMMSKGEKLYFDNLPSGVYIIKVGEEEPRKVQVI | ≥ 0.43
HMDAKIEYTMSDLIENRLINSDDASMRREKLSEILKIGYGNGKKTLHKLNSFGITREEFEEAMKEVNSH | -0.0624
HMDAKIKDYADAYAKMDPQQAASLFNNMTTGSLDLVAKILENIPANKRAAILEKMDVNAAAQVTEKMR | 0.188
HMDAKSRFQEWVQAETGITPTYRIIGDSGPDHAKTFIAQVLLGERVVGEGVGSSKRAAEQAAAQAALAAM | -0.346
HMDAMMQRLERLKELASSADGSKDYLILGPLRRDLAKLMALEDPKLRQGAEELDRKILAILS | -0.437
HMDAPHPSVVQVYFESRDRSWTYYNDRFDLHEGDLVYVEGKLEGVRGRVVEVSYNFRIKLADYKRVIAVA | -0.122
HMDASSAVQFGSLLRDARRRQGLSQAELGGDKYSGSYISHLESGRRVATPEVIEFLSRRLGVSPLEWGVS | -0.026
HMDASSTGFLGKHVQIVGLVSQPHLNGRRGVASRFDSNRRRYLVRLDEIDGHAEVVAFRPDNLVLSNLL | -0.0982
HMDASVTIEQVERMVQANVSDDVIISQLQGRGAAQNLSTDDIINLTQKGISAEVIKAYQSAG | -0.934

Sequence | soluble fraction (log2)
HMDAVLMEYDRLLALELTEDPDVYQDLLDKVREQSLGADGRVTDKYREKFDAVATRFDDYEDNYQW | -0.62
HMDAVQAGKRVLIVDDLIATGGTAKAATDLIEKAGGTVVGFSFVMRLDGLDGLDKLDGKPSSSLIAMP | -0.0677
HMDAYMGEAKDEETFAEEYLNDSGLLNEIPESVARYFDIVAYARDLLIGDFSLHDGHVFNMT | -0.377
HMDDAFLNKEMLKQALENLNEREKKLIYLRFYEGLTQKEIADRLSLSQMHVSRLLNESLNKLRRKI | -0.0579
HMDDATDLPYQEFRTQVSDGQVKIAQFNNNTGKITFESISGDKFKTSGPLELSSDDERLFLENIEDFKFFT | -1.1
HMDDATDVPYQEFRTQVTSGQVEIAQFNNNTGKISFQSTSGEKFETSGPLELSSDDERLFLENIEDFKFFT | -1.63
HMDDATIKVNIAAKFLNAGNNLFVDIDTTVLEGRVLLTGLVDTQEVRIDAVRLVWEVEGIREVINEIEIG | -2.1
HMDDATTQLADRLLDLRRKAGYSQEQLADLLGVSRQAISKWEGAQGRPEVDNVVKLAQIYRVSTDFILTGS | -0.656
HMDDAVSHPDAGHIVTVTKVSADGTAEVMYRGASWRAKTADGSPLTAGSARIVRVDGAALVVEP | 0.116
HMDDDDPDQEIAQYYEKLRAMNPDEETKQKLSDEINKLSKMMYSSQEAMVSRNYLDTVFSLPWHQF | -1.37
HMDDEELDALKGIPANEYTQEQIKQISEVFHTLQKNEVKDWLNSLQLRNIELPFELRNEVFSQ | -0.43
HMDDFPLKRGSKGNRVTLLQNALVKKYGAGILPKYGVDGMFGKEVEAALVHAKIPTTINEANYTKIV | 0.104
HMDDFSETLLQYIKEKGGHISLNDKTDAGVIYETFGVSKKTFKKAVGDLYKKRLIVLEDTGIRL | 0.0848
HMDDHLSFLAARLPDGASFDTDFDALGIDSFGMIALRAEVEERLGEQIADSDWTKVERPSEILAMLERK | -1.76
HMDDLATAYKAMGVDASISDKDLKRAYRKLMSQHHPDKMIAKGVPADMVAMATEKTQEIQAAYDLIERSR | 0.0752
HMDDLIIQIELKQEGLEITGLKVLLKEDSVIDEQVKQTIRRKIERFLVNLYGNPNVYVSKFSMGI | -1.36
HMDDLTTASIKQQLKALIDEENKNKPLSDQKLTDALKAQGIDISRRTVAKYREAMNIPGSSKRKRF | 0.0697
HMDDMVLEIGPGIGTMTQYLAEAAGKVVAVEIDRNLLPILQETLADYDNVKVIHADVLSLDLEKLVQEE | -0.868
HMDDPDALITDSQLKAIHVLLGKLKIDDNLKHAYIADVLQLKDIPETLKTLTKHQGSTIIERLNLLIKDA | -0.0657
HMDDPLSQLTPREREVLELMASGASNQGIADALVITVRAVEKYVSSIFGKLGLPSTGSESRRVLAVLTFLR | -1.32
HMDDPYAGLRQRAYLFLRERDGAVPEEELIEHVFGSSGNPALWRPLLRQVLGADDRLDLRADGYWALRG | -0.839
HMDDSPTARALRTLDLIHNRPGITAAELADRLGVTERAVRRYVLTLRDAGVPVLGTPGRYGGYQVGK | -0.0455
HMDDSVTFSEFVRMVDSGQVESVRITGNEVTGSDSTGNTFRTFVPPQYEGLVNRLVERDVAVTAEE | -0.284
HMDDSVVFSLNAKGIRLTGAGKYGEAIALFDKAIAAKPGLSGLYFNRAEARRLSGDLPGARSDLEQALAI | -0.113
HMDDTRLELTLLGKIHNDEEINKQSHINVNIKNGVILLTGESPRREITERILTLARTFEHTRQIVNQIAT | -0.515

Sequence | soluble fraction (log2)
HMDDVIDVYATYDKSAEGVLSNIQLFSNQKKTTPITPESGKIYIDVEGNYQFRWTGTQYATV | -0.09
HMDDYRSLRGQEKAAIFLMSLSQEQAAKIFANLDDEEIKEISQAMSSLGTVGSEIIERLFVEFAEQVSS | -1.08
HMDEARLAVASNLIRLRTDAGMTQAELGEKLNYSDKTISKWERAEAIPDAFVLKQIGELFHVSVDFLLRTH | 0.1
HMDEDTWKLYKRAYKKYYARYMKGNMSEEAFKTWAAQAARDRDAAIEQVKAALDENLKAQVIERLKEELNR | 0.22
HMDEEEKGEVEVPNLIGLTRKEAKKTLEEEGLLIETKESLKTNLDDEYEKIKSQLPKAGIKIKQGSTVYVD | 0.183
HMDEGQEHYVKETDLPFYSEADPASSVIFPLVLNQKLIEKERKDDWIRALEPTTGLVGWVLLKSLSPQQLS | -1.59
HMDEIELLLQDAIQKLPEKQRMVFTLRYYDNLPYEEISKILDMSVSTLKTNYHYAKSKIEQYILDHS | -0.839
HMDEKPPHEALSNREFQVLQLLAQGRSVGQIAQQLTLSANTISTYRARIFDKLGLHNPADLFSYAARHRLT | 0.111
HMDELNFGNFEGTRIFVQRTARKKSIALSIRDGTIVILAPRHIPNQEIQELITTNTDWIRAKLSQHAETKR | -0.264
HMDELVYVPNITGKTVEEARTELQKRDLGLNIAGHQFSDEFGKGRIISQDPAAGSRLKVNRSISVIVSSGQ | 0.00524
HMDENVVLRKVAREAFVIEYVRGIRAIDPGIGGPKLWLMYKREFGDNDTVGRDTFEDILDRNNLKVRI | -0.363
HMDEPADVAIFDGFRQMSEDELKKLYESLNLAMTFKDFLHIQNYFKNEENREPSVTEIRVLDTYWSDH | -0.321
HMDEPVDRLSPREQEVLALMAEGRSNAAIAHRLSITEKAVAKHINSIFTKLDLPLDEDDHRRVRAVLAWLR | -0.464
HMDESIPVITYKDSVYANPKAFADAHKLPYKSLHNALSKARKEGKVRFMYKQYNFHLDNNGYIVAVS | -0.195
HMDESLLDYALREIKARIQNGTYPPGTKLSTQEISDSLGISRTPVVAAINRLVAQGVAEAIPRRGTIVAR | 0.015
HMDETFTITFDPNGGTLNGSKTKTVSLGDIVYGKLPTASKTGYSFIGWFTEKEGGEQISSATKIIASDLTL | -0.204
HMDETPESIFAKANELYPKYIKYFYTEQEYYSKVEEYINLYEFQKNSTYILGKDLEEFLEEYITNKQ | -1.51
HMDEWDDGDKPKLKITLYADDDYYFASGFSKSSVSLSGSDGTVTSVSRSSSDTLIVYVTLDALD | -0.845
HMDEYILTLDEVKELLKSKDYDDLKNVLKWSNKFQKDTIIQTAISEKVSDANVINIIKEITGQDITSLIV | -1.12
HMDEYTREQFVADMEEGRVREVTIHPNSEVPTGYIRVELANGADMKLYVTDIVEAEELVRSYGFDPPVRDV | -0.56
HMDFDFHALGREIKRKRKDKGWTQEYLAQLLDRTPRSIMYMENRGQHPSLNILFKIATLLEISIDQFFF | 0.158
HMDFDQELFDKIVEATMDEARAAMDTDDKNVREERWNKLIEHWHELFLEDYPEMDKYLEEITYKFQKNPAT | -1.23
HMDFEVGTVKWFNTKKGYGFITRDQGEDIFVHFRNIKGQGRRSLSDGERVSFVVTHGDKGLQADQVSP | -1.18
HMDFFTAAPEEDEIGKRIDVYIAEYKEELSRSRVQKLIENGLVTVNGKAVKSNYKLRKGDILEVEIPDPE | -0.00543
HMDFGPDSAAPLADGSAPEGFDVKGNADSMLYHEPDGRWYDATVAEVWFRTAEAAQAAGFTKAGS | -2.02
